Data published in US12077599 (SEOUL NATIONAL UNIVERSITY R AND DB FOUNDATION NATIONAL …, dated 2024).

B1: 3B20-G1K scFv (phage-displayed clone) (scFv)
scFv: LTQPSSVSANLGGTVKITCSGGSYGYGWYQQKAPGSAPATVIYDNTNRPSDIPSRFSGSKSGSTGTLTITGVQVEDEAVYYCGSADSSSIATFGAGTTLTVLGQSSRSSGGGGSSGGGGSAVTLDESGGGLQTPGGTLSLVCKASGFSFSDRGMHWMRQAPGKGLEYVGAISGDGYITHYGAAVKGRATISRDNGQSTVRLQLNNLRAEDTATYYCTRKGGGNIDAWGHGTEVIVSSTS
notes: Clone from the HCDR3 first-residue NNK library in pComb3XSS, tested as phage in ELISA; also called 3B20-GIK
B2: 3B20-G1K scFv-rFc fusion protein (Fc fusion)
scFv: B1 scFv
notes: also called 3B20-G1K-rFc; 3B20(scFv)-G1K-rFc fusion protein; not shown: rabbit antibody Fc (rFc)

Experiments:
[1] = target: T1, GRP75 (Enzo Life Sciences) (UniProt P38646 47-679, limits assumed); experiment: phage ELISA
T1 construct: Purchased protein coated in ELISA
Experimental: Each codon in the bracket in the forward primer sequence of the second fragment was replaced with NNK. Subsequently, these PCR fragments were purified and subjected to overlap extension PCR. The overlap extension PCR was performed using 100 ng PCR fragments each by after preparatory modification of DNA at 95° C. for 5 minutes, 30 cycles of DNA modification at 95° C. for 30 seconds, combination of primers at 56° C. for 30 seconds, and elongation at 72° C. for 30 seconds, and then it was terminated after incubation for 5 minutes. The obtained overlap extension PCR products were purified and subcloned into a pComb3XSS phagemid vector using Sfi I restriction enzyme and transformed into *Escherichia coli* [See C. F. Barbas, Phage Display: a Laboratory Manual, Cold Spring Harbor Laboratory Press, Cold Spring Harbor, N Y, 2001]. From the output titer plate, phages were rescued from randomly selected colonies and subjected to ELISA [See C. F. Barbas, Phage Display: a Laboratory Manual, Cold Spring Harbor Laboratory Press, Cold Spring Harbor, N Y, 2001].
Example 3. Screening of Modified scFv with Enhanced Specificity from the HCDR3 Site-Directed Mutagenesis Library Based on the result of Example 2, to generate monoclonal antibody clones nonreactive to Hsp70 but reactive to ROS1, HCDR3 site-directed mutagenesis libraries were constructed. […]

[2] = target: T1, GRP75 (Enzo Life Sciences); experiment: ELISA, GRP75 coated, detection with HRP anti-rabbit IgG
Experimental: Microtiter plates (Costar, Cambridge, MA, USA) were coated with 100 ng of a recombinant ROS1 (37-290 amino acids)-Cκ fusion protein, an irrelevant protein (recombinant PSA (prostate cancer specific antigen; NP_001025218.1))-Cκ fusion protein the synthetic peptide ([…]-[…])-BSA conjugate or GRP75 (Enzo Life Sciences, Farmingdale, NY, USA) dissolved in coating buffer (0.1 M sodium bicarbonate, pH 8.6). After blocking, 3B20-rFc or 3B20-G1K (the first amino acid G of HCDR3 of 3B20 was substituted to K)-rFc fusion proteins were added. The amounts of bound antibodies were determined using a horseradish peroxidase (HRP)-conjugated goat anti-rabbit IgG antibody (Abcam, Cambridge Science Park, Cambridge, UK) and 2,20-azinobis [3-ethylbenzothiazoline-6-sulfonic acid]-diammonium salt (ABTS) substrate solution (Amresco LLC, Solon, OH, USA). All experiments were performed in triplicate.
To test the specificity of 3B20-GlK, a recombinant 3B20-G1K scFv-Cκ fusion protein was prepared. Then ELISA, immunoblot, and immunoprecipitation analyses were performed in parallel with 3B20 for the prepared fusion protein. […] After blocking, the 3B20-rFc fusion protein or 3B20-G1K-rFc fusion protein was added to the well in a concentration of 0 to 2000 ng/ml, and the amount of the fusion protein combined to the well was measured by ELISA using the HRP-conjugated anti-rabbit IgG antibody and ABTS solution. […]

T1 sequence (P38646 47-679 limits assumed): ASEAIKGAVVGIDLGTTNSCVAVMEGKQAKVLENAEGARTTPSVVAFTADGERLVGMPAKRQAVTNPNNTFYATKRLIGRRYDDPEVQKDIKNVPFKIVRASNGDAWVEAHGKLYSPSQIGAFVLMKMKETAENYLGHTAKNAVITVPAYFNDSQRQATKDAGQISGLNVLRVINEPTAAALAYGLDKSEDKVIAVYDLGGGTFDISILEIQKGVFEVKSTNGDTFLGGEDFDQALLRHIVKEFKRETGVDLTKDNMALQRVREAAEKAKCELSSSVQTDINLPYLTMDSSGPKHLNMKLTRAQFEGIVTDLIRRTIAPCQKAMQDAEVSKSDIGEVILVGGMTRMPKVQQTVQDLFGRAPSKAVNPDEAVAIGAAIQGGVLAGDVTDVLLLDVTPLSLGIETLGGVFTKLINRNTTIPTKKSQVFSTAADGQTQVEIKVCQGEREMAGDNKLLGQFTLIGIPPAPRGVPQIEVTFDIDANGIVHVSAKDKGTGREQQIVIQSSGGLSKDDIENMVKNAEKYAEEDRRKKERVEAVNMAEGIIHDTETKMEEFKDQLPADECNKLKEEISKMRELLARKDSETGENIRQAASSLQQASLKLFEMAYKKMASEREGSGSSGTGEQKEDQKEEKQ

Binder	binding result [1]	binding result [2]
B1	no binding	
B2		no binding (tested: 2 µg/mL)
